Laboratory results from patent US20080044423A1 (AstraZeneca / MedImmune, published 2008).
Values joined by “and” are separate entries in the source; they are usually repeats but may differ in a detail not shown here. Equal entries are not always repeated. Where two headings read alike, the source gives them in different places.

Legend:
[1] = molecular target: T1, human IL-17A, untagged, E. coli derived (in house or Peprotech) (human, UniProt Q16552 24-155); assay: cell-based or functional assay
[2] = molecular target: T2, cynomolgus IL-17A (cynomolgus, UniProt Q16552 24-155 (human entry), limits assumed); assay: cell-based or functional assay
T2 chain: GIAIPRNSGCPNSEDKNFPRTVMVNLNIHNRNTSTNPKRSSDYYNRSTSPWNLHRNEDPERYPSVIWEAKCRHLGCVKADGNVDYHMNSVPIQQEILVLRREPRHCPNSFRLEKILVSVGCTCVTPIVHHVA

[3] = molecular target: human IL-17A (HT1080 assay of Example 1, source not stated) (human, UniProt Q16552 24-155); assay: cell-based or functional assay
[4] = molecular target: T2, cynomolgus IL-17A; assay: cell-based or functional assay
[5] = molecular target: T3, human IL-17A derived from the HEK-EBNA expression system (human, UniProt Q16552 24-155); assay: cell-based or functional assay
[6] = molecular target: T4, human IL-17C (R & D Systems) (human, UniProt Q9P0M4 19-197); assay: DELFIA epitope competition vs biotinylated human IL-17A on immobilised IgG
T4 sequence (looked up): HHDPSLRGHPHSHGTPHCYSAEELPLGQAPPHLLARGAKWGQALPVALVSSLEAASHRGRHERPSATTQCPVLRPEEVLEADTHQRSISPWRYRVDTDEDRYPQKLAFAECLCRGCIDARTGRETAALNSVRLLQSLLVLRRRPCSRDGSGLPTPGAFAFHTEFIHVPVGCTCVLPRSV

[7] = molecular target: T5, human IL-17E (R & D Systems) (human, UniProt Q9H293 33-177); assay: as above
T5 sequence (looked up): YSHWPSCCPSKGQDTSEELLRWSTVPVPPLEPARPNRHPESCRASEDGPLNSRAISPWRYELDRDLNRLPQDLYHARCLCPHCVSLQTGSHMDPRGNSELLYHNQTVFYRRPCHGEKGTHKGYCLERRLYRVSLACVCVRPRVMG

[8] = molecular target: T6, human IL-17B (Peprotech) (human, UniProt Q9UHF5 21-180, limits assumed); assay: as above
T6 sequence (looked up): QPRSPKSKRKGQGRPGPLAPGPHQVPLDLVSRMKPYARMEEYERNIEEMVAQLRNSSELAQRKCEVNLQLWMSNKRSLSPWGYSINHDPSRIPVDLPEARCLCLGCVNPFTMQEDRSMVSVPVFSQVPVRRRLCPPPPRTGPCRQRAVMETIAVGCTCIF

[9] = molecular target: T7, murine IL-17A (R & D Systems) (murine, UniProt Q62386 22-158, limits assumed); assay: as above
T7 sequence (looked up): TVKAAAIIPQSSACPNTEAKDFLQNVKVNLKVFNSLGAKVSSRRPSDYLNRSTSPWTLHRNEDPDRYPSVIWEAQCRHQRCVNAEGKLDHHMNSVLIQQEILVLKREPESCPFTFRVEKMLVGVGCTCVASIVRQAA

[10] = molecular target: T8, human IL-17F (Peprotech) (human, UniProt Q96PD4 31-163, limits assumed); assay: as above
T8 sequence (looked up): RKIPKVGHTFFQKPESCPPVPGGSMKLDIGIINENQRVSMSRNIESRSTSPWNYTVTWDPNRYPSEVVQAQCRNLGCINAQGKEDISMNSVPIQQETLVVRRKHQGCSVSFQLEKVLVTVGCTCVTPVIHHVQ

[11] = molecular target: T9, human IL-17D (Peprotech) (human, UniProt Q8TAD2 18-202, limits assumed); assay: as above
T9 sequence (looked up): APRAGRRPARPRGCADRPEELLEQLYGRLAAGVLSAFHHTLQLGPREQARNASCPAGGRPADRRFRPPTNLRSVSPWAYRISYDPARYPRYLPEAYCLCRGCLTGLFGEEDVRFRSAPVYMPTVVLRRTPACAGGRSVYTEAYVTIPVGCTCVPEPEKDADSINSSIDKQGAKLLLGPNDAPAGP

[12] = molecular target: T1, human IL-17A, untagged, E. coli derived …; assay: cell-based or functional assay; remark: listed apart in the source
[13] = molecular target: T1, human IL-17A, untagged, E. coli derived …; assay: cell-based or functional assay; remark: listed apart in the source
[14] = molecular target: T3, human IL-17A derived from the HEK-EBNA …; assay: estimated from pA2 (Schild) analysis in the HT1080 IL-6 release assay
[15] = molecular target: T4, human IL-17C (R & D Systems); assay: HTRF epitope competition vs HIS FLAG IL-17A binding the IgG
[16] = molecular target: T5, human IL-17E (R & D Systems); assay: as above
[17] = molecular target: T6, human IL-17B (Peprotech); assay: as above
[18] = molecular target: T7, murine IL-17A (R & D Systems); assay: as above
[19] = molecular target: T8, human IL-17F (Peprotech); assay: as above
[20] = molecular target: T9, human IL-17D (Peprotech); assay: as above
[21] = molecular target: T3, human IL-17A derived from the HEK-EBNA …; assay: cell-based or functional assay; remark: listed apart in the source
[22] = molecular target: T1, human IL-17A, untagged, E. coli derived …; assay: cell-based or functional assay; remark: listed apart in the source
[23] = molecular target: native IL-17A derived from primary human T cells (human, UniProt Q16552 24-155, N-linked glycosylation); assay: cell-based or functional assay
[24] = molecular target: T1, human IL-17A, untagged, E. coli derived …; assay: cell-based or functional assay; remark: listed apart in the source
[25] = molecular target: T1, human IL-17A, untagged, E. coli derived …; assay: cell-based or functional assay; remark: listed apart in the source

B1: Antibody 1 IgG1 (antibody, V domains shown)
VH: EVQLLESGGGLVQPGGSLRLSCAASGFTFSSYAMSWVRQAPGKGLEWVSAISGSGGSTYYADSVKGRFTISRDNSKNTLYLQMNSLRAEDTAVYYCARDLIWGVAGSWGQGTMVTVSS
VL: NFMLTQPHSVSESPGKTVTISCTRSSGSLANYYVQWYQQRPGSAPTIVIFANNQRPSGVPDRFSGSIDSSSNSASLTISRLKTEDEADYYCQSYDDSSVVFGGGTKLTVL
notes: human IgG1, lambda; constant regions not in the listing; also called Antibody 01; TINA12 IgG1
chondrocyte IL-6 release, geometric mean IC50 at 0.2 nM IL-17A [1]: 29.9 nM | chondrocyte IL-6 release, geometric mean IC50 at 2 nM IL-17A [1]: 75.7 nM | HT1080 IL-6 release, IgG IC50 [2]: 172 nM | HT1080 IL-6 release, IgG IC50 [3]: 22 nM | Fold difference in cross-reactivity (IgG) [4]: 6 fold | HT1080 IL-6 release, IgG IC50 [4]: 144 nM | HT1080 IL-6 release, IgG IC50 [5]: 23 nM | binding result [6]: no binding (tested: approx 100:1 over labelled IL-17A) | binding result [7]: no binding (tested: approx 100:1 over labelled IL-17A) | binding result [8]: no binding (tested: approx 100:1 over labelled IL-17A) | binding result [9]: no binding (tested: approx 100:1 over labelled IL-17A) | binding result [10]: no binding (tested: approx 100:1 over labelled IL-17A) | binding result [11]: no binding (tested: approx 100:1 over labelled IL-17A) | chondrocyte IL-8 release, geometric mean IC50 at 0.2 nM IL-17A [12]: 18.1 nM | chondrocyte IL-8 release, geometric mean IC50 at 2 nM IL-17A [12]: 44.5 nM | chondrocyte MMP13 release, IC50 at 2 nM IL-17A [13]: 147 nM and > 400 nM | chondrocyte MMP13 release, geometric mean IC50 at 0.2 nM IL-17A [13]: 110 nM

B2: Antibody 2 IgG1 (antibody, V domains shown)
VH: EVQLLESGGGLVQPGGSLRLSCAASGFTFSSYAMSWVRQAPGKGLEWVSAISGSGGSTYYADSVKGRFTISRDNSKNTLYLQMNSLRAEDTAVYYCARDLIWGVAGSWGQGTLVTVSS
VL: NFMLTQPHSVSESPGKTVTISCTRSSGSLANYYVQWYQQRPGSSPTIVIFANNQRPSGVPDRFSGSIDSSSNSASLTISGLKTEDEADYYCQSYDPHSVVFGGGTKLTVL
notes: human IgG1, lambda; constant regions not in the listing; also called Antibody 02
Kd [14]: 0.188 nM | binding result [15]: no binding | binding result [16]: no binding | binding result [17]: no binding | binding result [18]: no binding | binding result [19]: no binding | binding result [20]: no binding | HT1080 synergised IL-6 release (125 pM human IL-17 + 25 pM human TNFα), IgG IC50 [21]: 0.41 nM | cartilage explant synergised IL-6 response, Mean IC50 [22]: 3.39 nM | Fold difference in cross-reactivity (IgG) [4]: 12 fold | HT1080 IL-6 release, IgG IC50 [4]: 18.3 nM | HT1080 IL-6 release, IgG IC50 [5]: 1.5 nM | T cell supernatant induced IL-6 production in HT1080 cells, IC50 [23]: 0.25 nM | chondrocyte IL-6 release, geometric mean IC50 at 0.2 nM IL-17A [24]: 1.52 nM | chondrocyte IL-6 release, geometric mean IC50 at 2 nM IL-17A [24]: 5.51 nM | chondrocyte IL-8 release, geometric mean IC50 at 0.2 nM IL-17A [12]: 2.3 nM | chondrocyte IL-8 release, geometric mean IC50 at 2 nM IL-17A [12]: 7.91 nM | chondrocyte IL-8 release, geometric mean IC50 at 0.2 nM IL-17A [25]: 1.49 nM | chondrocyte IL-8 release, geometric mean IC50 at 2 nM IL-17A [25]: 7.18 nM
